Data on nine molecules can be found in patent US20140221287A1, “Amylin Peptides and Derivatives and Uses Thereof” (ASTRAZENECA PHARMACEUTICALS LP, priority 2011, published 2014).

No end group written: not given here.

For the assay, the target named is amylin receptor in membranes prepared from the nucleus accumbens portion of the brain (rat) (rat). The assay can be described thus: displacement of 125I-rat amylin from rat nucleus accumbens membranes. For orientation: In a radioligand displacement assay an active substance lowers the binding of a labelled ligand.
CNTATCATQRLANFLVRSSNNLGPVLPPTK(mPEG40KD)VGSNTY-NH2 (ends and bridges not checked) [Cmpd 26, [K^31(mPEG40KD)]-Cmpd 8]: the IC50 (as a rule, the concentration needed to halve the response being measured) is 0.075 µM.

In turn, CNTATCATQRLANFLVRSSNNLGPK(mPEG40KD)LPPTNVGSNTY-NH2 (ends and bridges not checked) [Cmpd 24, [K^26(mPEG40KD)]-Cmpd 6] came in with an IC50 of 0.054 µM.

CNTATCATQRLANFLVRSSNNLGPVLPPTNVGSNTY-NH2 (ends and bridges not checked) [Cmpd 2 ([desLys^1]-Cmpd 1)]: the IC50 was 0.00042 µM.

For the molecule KCNTATCATQRLANFLVRSSNNLGPVLPPTK(mPEG40KD)VGSNTY-NH2 (ends and bridges not checked) [Cmpd 25, [K^31(mPEG40KD)]-Cmpd 7], the IC50 was 0.086 µM.

For the molecule mPEG40KD-CNTATCATQRLANFLVRSSNNLGPVLPPTNVGSNTY-NH2 (ends and bridges not checked) [Cmpd 20, mPEG40KD-Cmpd 2], the IC50 was 0.078 µM.

KCNTATCATQRLANFLVRSSNNLGPK(mPEG40KD)LPPTNVGSNTY-NH2 (ends and bridges not checked) [Cmpd 23, [K^26(mPEG40KD)]-Cmpd 5] displayed an IC50 of 0.066 µM.

KCNTATCATQRLANFLVRSSK(mPEG40KD)NLGPVLPPTNVGSNTY-NH2 (ends and bridges not checked) [Cmpd 21, [K^21(mPEG40KD)]-Cmpd 3] returned an IC50 of 0.104 µM.

As to CNTATCATQRLANFLVRSSK(mPEG40KD)NLGPVLPPTNVGSNTY-NH2 (ends and bridges not checked) [Cmpd 22, [K^21(mPEG40KD)]-Cmpd 4], the IC50 turned out to be 0.112 µM.

In turn, KCNTATCATQRLANFLVRSSNNLGPK(Y‑shaped‑mPEG40KD)LPPTNVGSNTY-NH2 (ends and bridges not checked) [Cmpd 27, [K^26(Y-shaped-mPEG4OKD)]-Cmpd 5] displayed an IC50 of 0.47 µM.
